From paper PMC10689437

Biological target: SARS-CoV-2 non-structural protein 3 (nsp3), released from the expressed HA-nsp3-4-V5 polyprotein (SARS-CoV-2)
Assay: cryo-EM structure

SARS-CoV-2 non-structural protein 3 (nsp3), released from the expressed HA-nsp3-4-V5 polyprotein (natural protein)
stoichiometry N: 6
